The target in assay [1] is T1, Ins 5 type mutant CALR protein on UT-7/TPO CALR Ins 5 cells (UniProt P27797 18-417).
T1 sequence (looked up): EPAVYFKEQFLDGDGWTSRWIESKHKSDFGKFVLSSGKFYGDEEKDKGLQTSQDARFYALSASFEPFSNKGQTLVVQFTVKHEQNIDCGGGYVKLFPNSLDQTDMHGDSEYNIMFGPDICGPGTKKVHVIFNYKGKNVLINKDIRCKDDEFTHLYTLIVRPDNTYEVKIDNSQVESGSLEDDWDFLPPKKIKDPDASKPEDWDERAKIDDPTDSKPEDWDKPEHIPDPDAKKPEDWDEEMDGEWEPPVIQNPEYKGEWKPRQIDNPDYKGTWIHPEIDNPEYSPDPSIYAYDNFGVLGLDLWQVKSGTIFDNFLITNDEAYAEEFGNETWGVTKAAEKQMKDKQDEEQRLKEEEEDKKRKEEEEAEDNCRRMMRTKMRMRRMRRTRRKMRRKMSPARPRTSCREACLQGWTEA
The experiment in a line: cell-based or functional assay.

Assay [2] has as its target T2, protein having an Fc region and a His-tag added to the N-terminus of SEQ ID NO: 1.
T2 construct: also called mutant CALR protein (antigen of the BLItz measurement); not shown: Fc region and His-tag at the N-terminus
T2 chain: RRMMRTKMRMRRM
The experiment in a line: BLItz biolayer interferometry, Fc/His-SEQ ID NO: 1 protein on the biosensor. How it is done: As another method, measurements were performed using the molecular interaction analysis system BLItz (ForteBio), which applies biolayer interferometry […]. Specifically, a protein having an Fc region and a His-tag added to the N-terminus of SEQ ID NO: 1 was immobilized at a concentration of 0.1 mg/mL using the Anti-Penta-HIS or ProteinA biosensor (ForteBio). Subsequently, the antibodies 1 to 114 made were prepared at a concentration of 500, 100, and 50 nM and reacted to acquire the dissociation constant.
(Biolayer interferometry detects binding as a change in optical thickness at a sensor tip.)

The term Kd denotes a measure of binding affinity in units of concentration.

B1: Antibody 67 (bispecific antibody)
chain 1: not shown
chain 2: DIQMTQSPSFVSASVGDRVTITCLASEDIYSYLAWYQQKPGKAPKLLIFAANRLQDGVPSRFSGGGSGTGFTLTISSLQPEDFATYFCLQGSKFPYTFGQGTKLEINRTVAAPSVFIFPPSDEQLKSGTASVVCLLNNFYPREAKVQWKVDNALQSGNSQESVTEQDSKDSTYSLSSTLTLSKADYEKHKVYACEVTHQGLSSPVTKSFNRGEC
Take B1: the “EC50 of cytotoxic activity (pM)” value in assay [1] stood at 5900 pM. In addition, the Kd in assay [2] is < 1 pM.

B2: Antibody 82 (bispecific antibody)
chain 1: not shown
chain 2: DIQMTQSPSSLSASVGDRVTITCLASEDIYSYLAWYQQKPGKAPKLLIFAANRLQSGVPSRFSGSGSGTDFTLTISSLQPEDFATYYCLQGSKFPYTFGPGTKVDIKRTVAAPSVFIFPPSDEQLKSGTASVVCLLNNFYPREAKVQWKVDNALQSGNSQESVTEQDSKDSTYSLSSTLTLSKADYEKHKVYACEVTHQGLSSPVTKSFNRGEC
In the case of B2, in assay [1], the “EC50 of cytotoxic activity (pM)” value came to 22 pM. Besides, the Kd in assay [2] was < 1 pM.

B3: Antibody 69 (bispecific antibody)
chain 1: not shown
chain 2: DIQMTQSPSFVSASVGDRVTITCLASEDIYSYLAWYQQKPGKAPKLLIFAANRLQSGVPSRFSGGGSGTGFTLTISSLQPEDFATYFCLQGSKFPYTFGQGTKLEINRTVAAPSVFIFPPSDEQLKSGTASVVCLLNNFYPREAKVQWKVDNALQSGNSQESVTEQDSKDSTYSLSSTLTLSKADYEKHKVYACEVTHQGLSSPVTKSFNRGEC
Take B3: the “EC50 of cytotoxic activity (pM)” value in assay [1] is 162 pM. The Kd in assay [2] is < 1 pM.

B4: Antibody 72 (bispecific antibody)
chain 1: not shown
chain 2: DIQMTQSPSFVSASVGDRVTITCLASEDIYSYLAWYQQKPGKAPKLLIFAANRLQSGVPSRFSGGGSGTGFTLTISSLQPEDFATYFCLQGSKFPYTFGQGTKLEINRTVAAPSVFIFPPSDEQLKSGTASVVCLLNNFYPREAKVQWKVDNALQSGNSQESVTEQDSKDSTYSLSSTLTLSKADYEKHKVYACEVTHQGLSSPVTKSFNRGEC
For the molecule B4, the “EC50 of cytotoxic activity (pM)” value in assay [1] stood at 93 pM. Moreover, in assay [2], the Kd was < 1 pM.

B5: Antibody 85 (bispecific antibody)
chain 1: not shown
chain 2: DIQMTQSPSSLSASVGDRVTITCLASEDIYSYLAWYQQKPGKAPKLLIFAANRLQSGVPSRFSGSGSGTDFTLTISSLQPEDFATYYCLQGSKFPYTFGPGTKVDIKRTVAAPSVFIFPPSDEQLKSGTASVVCLLNNFYPREAKVQWKVDNALQSGNSQESVTEQDSKDSTYSLSSTLTLSKADYEKHKVYACEVTHQGLSSPVTKSFNRGEC
B5: the “EC50 of cytotoxic activity (pM)” value in assay [1] was 389 pM. For the same molecule, the Kd in assay [2] was < 1 pM.

B6: Antibody 75 (bispecific antibody)
chain 1: not shown
chain 2: DIQMTQSPSFVSASVGDRVTITCLASEDIYSYLAWYQQKPGKAPKLLIFAANRLQSGVPSRFSGGGSGTGFTLTISSLQPEDFATYFCLQGSKFPYTFGQGTKLEIKRTVAAPSVFIFPPSDEQLKSGTASVVCLLNNFYPREAKVQWKVDNALQSGNSQESVTEQDSKDSTYSLSSTLTLSKADYEKHKVYACEVTHQGLSSPVTKSFNRGEC
On to B6, for which, in assay [1], the “EC50 of cytotoxic activity (pM)” value was determined as 77 pM. Besides, the equilibrium dissociation constant (Kd) in assay [2] was < 1 pM.

B7: Antibody 80 (bispecific antibody)
chain 1: not shown
chain 2: DIQMTQSPSSLSASVGDRVTITCLASEDIYSYLAWYQQKPGKAPKLLIFAANRLQDGVPSRFSGSGSGTDFTLTISSLQPEDFATYYCLQGSKFPYTFGPGTKVDIKRTVAAPSVFIFPPSDEQLKSGTASVVCLLNNFYPREAKVQWKVDNALQSGNSQESVTEQDSKDSTYSLSSTLTLSKADYEKHKVYACEVTHQGLSSPVTKSFNRGEC
As for B7, the “EC50 of cytotoxic activity (pM)” value in assay [1] stood at 28 pM. The dissociation constant Kd in assay [2] was < 1 pM.

B8: Antibody 83 (bispecific antibody)
chain 1: not shown
chain 2: DIQMTQSPSSLSASVGDRVTITCLASEDIYSYLAWYQQKPGKAPKLLIFAANRLQSGVPSRFSGSGSGTDFTLTISSLQPEDFATYYCLQGSKFPYTFGPGTKVDIKRTVAAPSVFIFPPSDEQLKSGTASVVCLLNNFYPREAKVQWKVDNALQSGNSQESVTEQDSKDSTYSLSSTLTLSKADYEKHKVYACEVTHQGLSSPVTKSFNRGEC
Regarding B8, the “EC50 of cytotoxic activity (pM)” value in assay [1] was 110 pM. Further, the dissociation constant Kd in assay [2] is < 1 pM.

B9: Antibody 77 (bispecific antibody)
chain 1: not shown
chain 2: DIQMTQSPSFVSASVGDRVTITCLASEDIYSYLAWYQQKPGKAPKLLIFAANRLQSGVPSRFSGGGSGTGFTLTISSLQPEDFATYFCLQGSKFPYTFGQGTKLEIKRTVAAPSVFIFPPSDEQLKSGTASVVCLLNNFYPREAKVQWKVDNALQSGNSQESVTEQDSKDSTYSLSSTLTLSKADYEKHKVYACEVTHQGLSSPVTKSFNRGEC
As for B9, the “EC50 of cytotoxic activity (pM)” value in assay [1] was 129 pM. Besides, the equilibrium dissociation constant (Kd) in assay [2] is < 1 pM.

B10: Antibody 84 (bispecific antibody)
chain 1: not shown
chain 2: DIQMTQSPSSLSASVGDRVTITCLASEDIYSYLAWYQQKPGKAPKLLIFAANRLQSGVPSRFSGSGSGTDFTLTISSLQPEDFATYYCLQGSKFPYTFGPGTKVDIKRTVAAPSVFIFPPSDEQLKSGTASVVCLLNNFYPREAKVQWKVDNALQSGNSQESVTEQDSKDSTYSLSSTLTLSKADYEKHKVYACEVTHQGLSSPVTKSFNRGEC
On to B10, for which the “EC50 of cytotoxic activity (pM)” value in assay [1] amounted to 277 pM. Besides, in assay [2], the Kd is < 1 pM.

B11: Antibody 68 (bispecific antibody)
chain 1: not shown
chain 2: DIQMTQSPSFVSASVGDRVTITCLASEDIYSYLAWYQQKPGKAPKLLIFAANRLQSGVPSRFSGGGSGTGFTLTISSLQPEDFATYFCLQGSKFPYTFGQGTKLEINRTVAAPSVFIFPPSDEQLKSGTASVVCLLNNFYPREAKVQWKVDNALQSGNSQESVTEQDSKDSTYSLSSTLTLSKADYEKHKVYACEVTHQGLSSPVTKSFNRGEC
Take B11: the “EC50 of cytotoxic activity (pM)” value in assay [1] came out at 27 pM. In addition, in assay [2], the Kd was < 1 pM.

B12: Antibody 74 (bispecific antibody)
chain 1: not shown
chain 2: DIQMTQSPSFVSASVGDRVTITCLASEDIYSYLAWYQQKPGKAPKLLIFAANRLQSGVPSRFSGGGSGTGFTLTISSLQPEDFATYFCLQGSKFPYTFGQGTKLEIKRTVAAPSVFIFPPSDEQLKSGTASVVCLLNNFYPREAKVQWKVDNALQSGNSQESVTEQDSKDSTYSLSSTLTLSKADYEKHKVYACEVTHQGLSSPVTKSFNRGEC
For B12, the “EC50 of cytotoxic activity (pM)” value in assay [1] worked out at 31 pM. In addition, the Kd in assay [2] is < 1 pM.

B13: Antibody 71 (bispecific antibody)
chain 1: not shown
chain 2: DIQMTQSPSFVSASVGDRVTITCLASEDIYSYLAWYQQKPGKAPKLLIFAANRLQSGVPSRFSGGGSGTGFTLTISSLQPEDFATYFCLQGSKFPYTFGQGTKLEINRTVAAPSVFIFPPSDEQLKSGTASVVCLLNNFYPREAKVQWKVDNALQSGNSQESVTEQDSKDSTYSLSSTLTLSKADYEKHKVYACEVTHQGLSSPVTKSFNRGEC
On to B13, for which, in assay [1], the “EC50 of cytotoxic activity (pM)” value stood at 448 pM. The molecule further showed a Kd in assay [2] of 554 pM.

B14: Antibody 78 (bispecific antibody)
chain 1: not shown
chain 2: DIQMTQSPSFVSASVGDRVTITCLASEDIYSYLAWYQQKPGKAPKLLIFAANRLQSGVPSRFSGGGSGTGFTLTISSLQPEDFATYFCLQGSKFPYTFGQGTKLEIKRTVAAPSVFIFPPSDEQLKSGTASVVCLLNNFYPREAKVQWKVDNALQSGNSQESVTEQDSKDSTYSLSSTLTLSKADYEKHKVYACEVTHQGLSSPVTKSFNRGEC
Take B14: the “EC50 of cytotoxic activity (pM)” value in assay [1] stood at 63 pM. Further, the Kd in assay [2] is < 1 pM.

B15: Antibody 70 (bispecific antibody)
chain 1: not shown
chain 2: DIQMTQSPSFVSASVGDRVTITCLASEDIYSYLAWYQQKPGKAPKLLIFAANRLQSGVPSRFSGGGSGTGFTLTISSLQPEDFATYFCLQGSKFPYTFGQGTKLEINRTVAAPSVFIFPPSDEQLKSGTASVVCLLNNFYPREAKVQWKVDNALQSGNSQESVTEQDSKDSTYSLSSTLTLSKADYEKHKVYACEVTHQGLSSPVTKSFNRGEC
With B15, the “EC50 of cytotoxic activity (pM)” value in assay [1] amounted to 507 pM. The Kd in assay [2] was < 1 pM.

B16: Antibody 76 (bispecific antibody)
chain 1: not shown
chain 2: DIQMTQSPSFVSASVGDRVTITCLASEDIYSYLAWYQQKPGKAPKLLIFAANRLQSGVPSRFSGGGSGTGFTLTISSLQPEDFATYFCLQGSKFPYTFGQGTKLEIKRTVAAPSVFIFPPSDEQLKSGTASVVCLLNNFYPREAKVQWKVDNALQSGNSQESVTEQDSKDSTYSLSSTLTLSKADYEKHKVYACEVTHQGLSSPVTKSFNRGEC
Turning to B16, the “EC50 of cytotoxic activity (pM)” value in assay [1] was 300 pM. For the same molecule, the Kd in assay [2] is < 1 pM.

For the origin of these results see patent US20240092890A1 (JUNTENDO EDUCATIONAL FOUNDATION, published 2024).
